Among the data in PMC3772012, “Enzyme Immobilisation on Amino-Functionalised Multi-Walled Carbon Nanotubes: Structural and Biocatalytic Characterisation” (PLoS ONE, 2013) are Km and Vmax values, retold here.

A word on the Km: it is the concentration of substrate that gives half-maximal velocity. For orientation: Vmax means the top rate of the reaction or transport when substrate is in excess.

Substrate in the data set: CCCCCCCCCCCCCCCC(=O)Oc1ccc([N+](=O)[O-])cc1
In words: purified protein. The format is biochemical, Thermomyces lanuginosus. The conditions noted are these: free enzyme, 50 mM Tris pH 9.0, 60 °C, 10-60 mM substrate, Triton X-100 and gum acacia in assay buffer.

B1: Thermomyces lanuginosus lipase (Thermomyces lanuginosus) (protein)
chain: EVSQDLFNQFNLFAQYSAAAYCGKNNDAPAGTNITCTGNACPEVEKADATFLYSFEDSGVGDVTGFLALDNTNKLIVLSFRGSRSIENWIGNLNFDLKEINDICSGCRGHDGFTSSWRSVADTLRQKVEDAVREHPDYRVVFTGHSLGGALATVAGADLRGNGYDIDVFSYGAPRVGNRAFAEFLTVQTGGTLYRITHTNDIVPRLPPREFGYSHSSPEYWIKSGTLVPVTRNDIVKIEGIDATGGNNQPNIPDIPAHLWYFGLIGTCL
notes: free enzyme
On to B1, for which the Km was 3.1 mM and the Vmax was 20.1 µmol/min/mg.
